# ± gives the uncertainty stated by the source.
# B1: Chromodomain-helicase-DNA-binding protein 4, residues 444 to 496; numbered along this chain, Q14839 (parent)
# chain: EDDHHMEFCRVCKDGGELLCCDTCPSSYHIHCLNPPLPEIPNGEWLCPRCTCP
# Variants of: B1
# Test: abundance fitness (aPCA) (normalised: wild type 0, dead -1); higher = more abundant; growth selection in yeast, the domain comes from the species named
# Details: Homo sapiens
row,Variant,abundance fitness
1,E7L,-0.121 ± 0.042
2,E7R,-0.174 ± 0.069
3,E7K,-0.492 ± 0.061
4,E7G,-0.239 ± 0.085
5,E7F,-0.002 ± 0.06
6,E7H,-0.22 ± 0.067
7,E7Q,-0.224 ± 0.074
8,E7S,-0.364 ± 0.061
9,E7M,-0.433 ± 0.05
10,E7W,-0.599 ± 0.095
11,E7D,-0.048 ± 0.064
12,E7V,-0.205 ± 0.058
13,E7Y,-0.813 ± 0.055
14,E7C,-0.15 ± 0.086
15,E7T,-0.618 ± 0.073
16,E7P,-0.401 ± 0.052
17,E7A,-0.366 ± 0.07
18,E7N,-0.664 ± 0.065
19,E7I,-0.481 ± 0.072
20,M6D,0.023 ± 0.05
21,M6Q,-0.508 ± 0.042
22,M6T,0.028 ± 0.047
23,M6R,-0.477 ± 0.051

row,Variant,abundance fitness
1,M6G,-0.056 ± 0.049
2,M6C,-0.207 ± 0.05
3,M6S,-0.147 ± 0.038
4,M6H,-0.713 ± 0.043
5,M6F,-0.204 ± 0.04
6,M6W,-0.231 ± 0.04
7,M6I,-0.021 ± 0.048
8,M6L,-0.665 ± 0.041
9,M6A,0.023 ± 0.047
10,M6N,-0.055 ± 0.062
11,H4N,0.197 ± 0.058
12,H4T,-0.004 ± 0.041
13,H4F,0.301 ± 0.064
14,H4E,-0.126 ± 0.048
15,H4Q,-0.058 ± 0.055
16,H4R,-0.04 ± 0.051
17,H4Y,0.078 ± 0.088
18,H4A,-0.14 ± 0.042
19,H4C,0.032 ± 0.042
20,H4M,0.107 ± 0.046
21,H4P,-0.294 ± 0.04
22,H4S,-0.409 ± 0.045
23,H4D,0.125 ± 0.091

row,Variant,abundance fitness
1,H4W,-0.126 ± 0.059
2,H4V,-0.008 ± 0.042
3,H4K,0.119 ± 0.058
4,H4I,0.025 ± 0.056
5,H4L,-0.162 ± 0.043
6,H5Y,0.097 ± 0.075
7,H5A,0.092 ± 0.047
8,H5C,0.068 ± 0.085
9,H5G,0.106 ± 0.044
10,H5N,-0.006 ± 0.077
11,H5M,-0.12 ± 0.067
12,H5P,-0.11 ± 0.051
13,H5K,0.199 ± 0.057
14,H5Q,0.074 ± 0.067
15,H5E,0.116 ± 0.055
16,H5I,0.165 ± 0.084
17,H5F,0.219 ± 0.098
18,H5S,-0.129 ± 0.048
19,H5W,0.02 ± 0.054
20,H5V,-0.135 ± 0.053
21,H5R,0.096 ± 0.043
22,H5L,-0.305 ± 0.044
23,H5T,0.019 ± 0.057

row,Variant,abundance fitness
1,K13H,-0.286 ± 0.046
2,K13C,-0.126 ± 0.054
3,K13E,0.214 ± 0.061
4,K13F,-0.267 ± 0.054
5,K13R,-0.087 ± 0.041
6,K13G,-0.01 ± 0.057
7,K13W,-0.139 ± 0.054
8,K13L,-0.129 ± 0.042
9,K13D,-0.243 ± 0.059
10,K13Y,-0.375 ± 0.065
11,K13T,-0.134 ± 0.041
12,K13Q,-0.024 ± 0.043
13,K13S,-0.101 ± 0.049
14,K13P,-1.08 ± 0.068
15,K13V,-0.303 ± 0.046
16,K13N,-0.199 ± 0.045
17,K13A,0.085 ± 0.046
18,K13M,-0.2 ± 0.055
19,D2G,0.26 ± 0.082
20,D2F,0.463 ± 0.069
21,D2S,0.202 ± 0.045
22,D2L,0.163 ± 0.05
23,D2Y,0.016 ± 0.076

row,Variant,abundance fitness
1,D2H,-0.036 ± 0.057
2,D2N,0.091 ± 0.056
3,D2K,0.378 ± 0.043
4,D2W,-0.334 ± 0.093
5,D2V,0.217 ± 0.059
6,D2C,-0.425 ± 0.13
7,D2M,0.278 ± 0.077
8,D2R,0.033 ± 0.065
9,D2E,0.188 ± 0.073
10,D2A,0.05 ± 0.057
11,G15E,0.057 ± 0.058
12,G15C,-0.508 ± 0.082
13,G15D,-0.274 ± 0.089
14,V11Y,-0.377 ± 0.073
15,V11G,-0.135 ± 0.057
16,V11N,-0.104 ± 0.078
17,V11Q,-0.037 ± 0.043
18,V11A,-0.316 ± 0.065
19,V11M,-0.026 ± 0.061
20,V11P,-0.877 ± 0.07
21,V11I,-0.074 ± 0.083
22,V11T,-0.019 ± 0.05
23,V11S,-0.159 ± 0.049

row,Variant,abundance fitness
1,V11W,-0.209 ± 0.071
2,V11F,-0.359 ± 0.067
3,V11L,-0.214 ± 0.048
4,V11C,-0.255 ± 0.067
5,V11D,-0.103 ± 0.069
6,V11R,0.012 ± 0.044
7,F8G,0.086 ± 0.071
8,F8L,-0.164 ± 0.051
9,F8C,-0.048 ± 0.059
10,F8K,-0.103 ± 0.062
11,F8I,-0.019 ± 0.05
12,F8H,-0.249 ± 0.043
13,F8N,-0.044 ± 0.069
14,F8M,-0.073 ± 0.063
15,F8V,0.012 ± 0.047
16,F8A,-0.103 ± 0.061
17,F8S,-0.124 ± 0.045
18,F8W,-0.041 ± 0.062
